The source of these data is US20050164920A1 (Pfizer, published 2005).

The assay addresses TrkB receptor on rat cerebellar neurons (rat, UniProt Q63604 32-821). Put plainly: cell-based or functional assay.

Positions of bridges follow the written chain, without caps; N, C: chain ends.

TrkB receptor on rat cerebellar neurons, sequence (Q63604 32-821): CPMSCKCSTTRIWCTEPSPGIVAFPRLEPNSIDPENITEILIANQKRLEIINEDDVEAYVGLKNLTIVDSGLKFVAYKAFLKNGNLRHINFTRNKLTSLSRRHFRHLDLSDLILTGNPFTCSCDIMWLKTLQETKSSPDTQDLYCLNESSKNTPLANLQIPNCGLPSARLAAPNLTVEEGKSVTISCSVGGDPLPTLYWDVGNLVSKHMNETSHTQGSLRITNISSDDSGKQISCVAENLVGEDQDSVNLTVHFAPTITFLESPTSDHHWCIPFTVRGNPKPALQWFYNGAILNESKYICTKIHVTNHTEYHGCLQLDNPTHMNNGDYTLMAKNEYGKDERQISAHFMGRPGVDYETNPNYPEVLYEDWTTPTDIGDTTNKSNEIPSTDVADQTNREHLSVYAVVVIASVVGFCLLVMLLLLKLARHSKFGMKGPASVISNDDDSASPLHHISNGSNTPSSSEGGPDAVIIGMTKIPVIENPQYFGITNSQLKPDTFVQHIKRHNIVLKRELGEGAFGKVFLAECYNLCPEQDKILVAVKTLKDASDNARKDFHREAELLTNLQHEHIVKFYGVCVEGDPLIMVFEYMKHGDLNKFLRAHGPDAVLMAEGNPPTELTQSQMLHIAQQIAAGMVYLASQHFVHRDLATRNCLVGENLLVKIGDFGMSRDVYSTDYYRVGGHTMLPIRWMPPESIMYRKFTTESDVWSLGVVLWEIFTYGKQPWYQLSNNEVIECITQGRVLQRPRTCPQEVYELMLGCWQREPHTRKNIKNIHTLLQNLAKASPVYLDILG

B1: N-Ac-CSRRGEC-NH2 (peptide)
peptide: Ac-CSRRGEC-NH2
modifications: disulfide 1-7
SMILES: CC(=O)N[C@H]1CSSC[C@@H](C(N)=O)NC(=O)[C@H](CCC(=O)O)NC(=O)CNC(=O)[C@H](CCCNC(=N)N)NC(=O)[C@H](CCCNC(=N)N)NC(=O)[C@H](CO)NC1=O
Take B1: the “inhibition of the BDNF response, fold against the NGF and NT-3 derived peptides” value is about 5 fold.

B2: N-Ac-…-NH2 (peptide)
peptide: Ac-CSRRGELAASRRGELC-NH2
modifications: disulfide 1-16
SMILES: CC(=O)N[C@H]1CSSC[C@@H](C(N)=O)NC(=O)[C@H](CC(C)C)NC(=O)[C@H](CCC(=O)O)NC(=O)CNC(=O)[C@H](CCCNC(=N)N)NC(=O)[C@H](CCCNC(=N)N)NC(=O)[C@H](CO)NC(=O)[C@H](C)NC(=O)[C@H](C)NC(=O)[C@H](CC(C)C)NC(=O)[C@H](CCC(=O)O)NC(=O)CNC(=O)[C@H](CCCNC(=N)N)NC(=O)[C@H](CCCNC(=N)N)NC(=O)[C@H](CO)NC1=O
Consider B2, for which the “EC50 of stimulation of neurite outgrowth” value was about 300 nM.

B3: neurotrophin-4 (NT-4/5), recombinant human (ligand)
chain: GVSETAPASRRGELAVCDAVSGWVTDRRTAVDLRGREVEVLGEVPAAGGSPLRQYFFETRCKADNAEEGGPGAGGGGCRGVDRRHWVSECKAKQSYVRALTADAQGRVGWRWIRIDTACVCTLLSRTGRA
B3 yielded a neurite outgrowth of rat cerebellar neurons, concentration of maximal response of 1 to 10 ng/mL.

B4: brain-derived neurotrophic factor (BDNF), recombinant human (ligand)
chain: HSDPARRGELSVCDSISEWVTAADKKTAVDMSGGTVTVLEKVPVSKGQLKQYFYETKCNPMGYTKEGCRGIDKRHWNSQCRTTQSYVRALTMDSKKRIGWRFIRIDTSCVCTLTIKRGR
B4 displayed an increase of neurite length against control culture, BDNF at 5 ng/ml of 60 to 70% and a neurite outgrowth of rat cerebellar neurons, concentration of maximal response of 1 to 10 ng/mL.
